Test results reported in article PMC7803741.
Like-named read-outs stand apart in the source and are kept apart here.

Assays:
GABARAP = GABARAP (UniProt Q9DCD6); experiment: ITC; conditions: reference: unphosphorylated synthetic γ2-GIM peptide; sites Y405
[1] = target: clathrin adaptor protein AP2 (AP2 μ1 subunit as printed) (UniProt P84092); experiment: ITC; conditions: reference: unphosphorylated synthetic γ2-GIM peptide; sites Y405
[2] = target: GABAA receptor-associated protein (GABARAP) (mouse) (UniProt Q9DCD6); experiment: ITC; VP-ITC at 25 °C; 50 mM Tris pH 7.8, 100 mM NaCl, 1 mM EDTA, 1 mM DTT; γ2 subunit protein or peptide (100-200 μM) injected into GABARAP, GABARAPL1 or AP2 (10-20 μM) in the cell; one-site binding model
Sequence of GABAA receptor-associated protein (GABARAP) (mouse) (Q9DCD6 whole entry): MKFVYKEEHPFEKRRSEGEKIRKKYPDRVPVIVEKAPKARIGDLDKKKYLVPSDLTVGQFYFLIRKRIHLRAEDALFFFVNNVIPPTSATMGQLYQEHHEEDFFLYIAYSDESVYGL

[3] = target: clathrin adaptor protein AP2 (AP2 μ1 subunit as printed) (rat) (UniProt P84092); experiment: ITC; VP-ITC, 25 °C; 50 mM Tris pH 7.8, 100 mM NaCl, 1 mM EDTA, 1 mM DTT; γ2 subunit protein or peptide (100–200 μM) injected into GABARAP, GABARAPL1 or AP2 (10–20 μM) in the cell; one-site binding model
Sequence of clathrin adaptor protein AP2 (AP2 μ1 subunit as printed) (rat) (P84092 whole entry): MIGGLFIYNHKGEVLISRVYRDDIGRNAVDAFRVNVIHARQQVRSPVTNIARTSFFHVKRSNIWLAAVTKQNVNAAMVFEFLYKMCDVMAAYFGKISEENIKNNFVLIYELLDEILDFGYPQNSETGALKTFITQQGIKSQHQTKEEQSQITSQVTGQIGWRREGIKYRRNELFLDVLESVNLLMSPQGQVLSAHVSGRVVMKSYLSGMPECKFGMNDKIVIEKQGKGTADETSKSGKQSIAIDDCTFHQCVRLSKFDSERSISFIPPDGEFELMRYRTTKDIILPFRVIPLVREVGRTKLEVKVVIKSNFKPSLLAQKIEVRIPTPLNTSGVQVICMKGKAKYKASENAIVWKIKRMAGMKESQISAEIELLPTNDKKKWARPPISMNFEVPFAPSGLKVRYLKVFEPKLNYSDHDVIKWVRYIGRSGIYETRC

[4] = target: GABAAR-associated protein (GABARAP) (mouse) (UniProt Q9DCD6); experiment: as above
Sequence of GABAAR-associated protein (GABARAP) (mouse) (Q9DCD6 whole entry): as the sequence (Q9DCD6 whole entry) above

[5] = target: GABAAR-associated protein (GABARAP) (mouse) (UniProt Q9DCD6); experiment: as above; remark: listed apart in the source

Sequence of clathrin adaptor protein AP2 (AP2 μ1 subunit as printed) (P84092 whole entry, looked up, tested part not stated): as the sequence (P84092 whole entry) above
Sequence of GABARAP (Q9DCD6 whole entry, looked up): as the sequence (Q9DCD6 whole entry) above

Row | Substance | Kd [3] [µM] | Kd [4] [µM] | other results
1 | GABAA receptor γ2 subunit (γ2-GABAAR; γ2-GIM = residues 398–415) γ2-GIM, 398-415 (from UniProt P22723-2) pY405 peptide |  |  | binding against the reference (GABARAP): lost; binding against the reference [1]: lost
2 | GABAA receptor γ2 subunit GIM (GABARAP interacting motif, 398-415) (peptide) |  |  | stoichiometry N [2]: 1.06
3 | GABAAR γ2 subunit GIM (GABARAP interacting motif, 398–415) (from UniProt P22723-2 398-415) (peptide) | 0.25 | 4.2 | Kd [5]: 4.9 µM
4 | recombinant of the TM3–TM4 ICD lacking the 424–441 octadecapeptide (from UniProt P22723-2 375-442) (domain or fragment) |  | 5.1 | 

Second part, led by results:

Row | Kd [3] [µM] | Kd [4] [µM] | Substance | other results
5 | 0.45 | 3.6 | synthesized γ2-GIM WT peptide (from UniProt P22723-2 398-415) | 
6 | 5.2 | 0.82 | synthetic pY403 γ2-GIM (from UniProt P22723-2 398-415) (peptide) | 
